Results reported in the DeepSol protein solubility set.

Experiment: soluble on expression in E. coli; label from the status in PepcDB or PDB records

Sequence | soluble on expression in E. coli
MYNLLTKQEIQLLSLIEYLYDSKEKVPMQVLRRKYEFSHYNINNLLNQLTLLISRVNTHENVHIRIINNQQSIELVADENIPIELMKEAVVRGSLTYMLALDLLLKRYTSAKDFCEEHFINFSIFKQVSDRLNNHLARFNCYLNLKRREKICGNEKDFRSFFYSLFFISGTSLVPFLSKTNQAQLQNFIEIIKNRYPYFTYTDLRKLKLIMSIGLLRYQSGFTITNYPEVAAINLAFPYSEFQLLVNDCFIDEQKEPDTWQAEIHFYYDFFSTLTMYSLVQMETINFANLAIMGMDNSPHATWIFEKCTQLQLDLSAIEVVFLLVNLSNASERLIHFPVEEELSYEVANVSLYEKQYPNVSRTTNYFLKRLPFDKQHPLDALFKETIFLIIRSVLLNKQIPVKILLHSSINQIQENWLAKEINNYCDVPLKFVNHIQEVPDLVITDKNNPLFHASKTFYWHPVPYLDEYYNLKQVVRKIYFAKLRGENSLEGIGC | not soluble
MYQDLIRNELNEAAETLANFLKDDANIHAIQRAAVLLADSFKAGGKVLSCGNGGSHCDAMHFAEELTGRYRENRPGYPAIAISDVSHISCVSNDFGYDYIFSRYVEAVGREGDVLLGISTSGNSGNVIKAIAAAREKGMKVITLTGKDGGKMAGTADIEIRVPHFGYADRIQEIHIKVIHILIQLIEKEMVK | not soluble
MYQSYPQQQQPGYQPQQPSHPIVGAGAAPTMAPQNPYGQQPFQPQFQQGQYQQPSGQQYQSMQQQFQSPQQQAPTQPTHPDRESYQTALPANVTPGWNDPPSMLPSAGTTPNRLSNMRRRPVDPSISGNVGYGTSSQTSNPYGASASPYGAPQQNPQQYQEQPQSYQTYQQPQQQQPQYGQQQNPQQFGQQYPGAGAPHQQQHYGM | not soluble
MYQVIRMYGAMEPWWFLDDWKEDITKVLEFDNYHEALQCYQKEWAKLRRRYSDFNSHGDIMTAFWNKQDQHWCEECGDYVQRYHSLALLTDWQETPSSWFRPTFTKQLEHHHHHH | soluble
MYRTHYSSEITEELNGQKVKVAGWVWEVKDLGGIKFLWIRDRDGIVQITAPKKKVDPELFKLIPKLRSEDVVAVEGVVNFTPKAKLGFEILPEKIVVLNRAETPLPLDPTGKVKAELDTRLNNRFMDLRRPEVMAIFKIRSSVFKAVRDFFHENGFIEIHTPKIIATATEGGTELFPMKYFEEDAFLAESPQLYKEIMMASGLDRVYEIAPIFRAEEHNTTRHLNEAWSIDSEMAFIEDEEEVMSFLERLVAHAINYVREHNAKELDILNFELEEPKLPFPRVSYDKALEILGDLGKEIPWGEDIDTEGERLLGKYMMENENAPLYFLYQYPSEAKPFYIMKYDNKPEICRAFDLEYRGVEISSGGQREHRHDILVEQIKEKGLNPESFEFYLKAFRYGMPPHGGFGLGAERLIKQMLDLPNIREVILFPRDRRRLTP | soluble
MYSIKMRSSNQDVHISGAETICEFDKIEQTVQRFYNKGFFHENGQPDFLNIKIQKIMEPIQQIKALQIIEDDKANLQHLTQECGVTEQALNQGMTYIKNETVYTGAIILSAISGKRLDSFGQRGIRATHFSFEDINNKGDLNERVTDALAIASCINAHPYVKGELCVSDDLTYTTGYFAAAKIGYHRLFDIKPVNTRYGGRIIFVDDCIDLNHYISFLESTPKQVVYETV | not soluble
MYSVSLMHGNPKTAIRPAGWHYGRRVYWIEGLPLIGHIAFGVIDRGTNVLQVRPSTLCFHNCIFCSVDAGPSSRRRRSEYTVEWEQLVVWVEKVARVKGGGLEALIDGVGEPLTHPHITRIIKALKGLDAIERVALETHGGSLSKSLARALEKAGLDRINLSVDAADPRLARSLVGVDWYGVDRVLKTAEWIIANTSIDVVLTPVVLPGVNEKEMATLVHWARRVGAGRKSGWPTGVLIQKFEIHKYGRKPSTVKSVWGWRRFYTWLARLEKETGYRLLVDPGEIGFKPRPRVEKPFERGDRVTLVLVGPGWHKGELLAVDRGWRRVVALYGLTEGEALTPGAEVEARIVRDKDNIFIAVPYAAALEHHHHHH | soluble
MYTHLTDMTNMLDTAKIGTSDGTFPLANAQNLQKAVEELQTGISKGMAGYFVLQYEIDNYCIAAEKAIAEFQDSYQQTLQPGTPAELKVFGIDGKGRIEFGSDPAYGGGNTFTVESWVKYDAGFFESGIGSFLSTFDGKQPNEGWMINFLGSNLRTTIGMGPQEGRVLEEGRAYPDNFGKWNHVVTVWDNTLPEGQLKMYVNGELFFSKTNDVKNDAGVLQNYMPNTRNQNMWAFQEPTDNSRCMTGFIKKFRMWSTAKSANEVKTLMNSDVTGTESGLVCAWDFTTVVEDVTNIPDKTGKHVAKIVGNYKWFKVEN | not soluble
MYTIAALYHFTRFADPADLKPALLDLCLAQGVKGTLLLAKEGINGTIAGPRAGIDAVLAHIRALPGCSDLEWKEATSDHPPFGKMKVRLKQEIVTMGQPDVDPRARVGHYVEPEDWNDLIRSDDVVLIDTRNDYEVAIGTFEGAIDPMTESFRDFPAWWEANKERFHNKRVAMFCTGGIRCEKSTNYLLGQGVEDVYHLKGGILRYLEEVPAENSTWQGECFVFDNRVSVGHGLVEGPHELCHGCRRPILPEDRNRPEYEHGVSCHLCIDETSEADKMRFRERQKQIALARARGEDHLATH | not soluble
MYVIDTSAIISRNLNLLEGDLMFPSSVIGEIKKGKLRYMIDVLLPMIRVASPDHEYLKIVEETAAKTGDLMNLSQTDKDVLALALQYDATIVTDDYSIQNVASYLNLGFLNA | soluble
NDDKEAKKEAQEKEKNTPNGLVYTNLDFDSFKATIKNLKDKKVTFKEVNPDIIKDEVFDFVIVNRVLKKIKDLKHYDPMIEKIFDEKGKEMGLNVEIQINPEVKDFFTFKSISTTNKQRCFLSLRGETREILCDNKLYNMLLAVFNSYDPNDLLKHISTVESLKKIFYTITCEAVY | soluble
NDNSPRFEKSVYEADLAENSAPGTPILQLRAADLDVGVNGQIEYVFGAATESVRRLLRLDETSGWLSVLHRIDREEVNQLRFTVMARDRGQPPKTDKATVVLNIKDENDNVP | soluble
NHVRRVQELSKFFAEEMGLDEDLVHKIYLYAPLHDIGKIKVPKEILNKKGKLTAEEWEIMKKHTIWGGELLSGRKELEVARNIALYHHESYDGTGYPFGLKDDEIPIEAQIVKIVDVYDAL | not soluble
NKDFQWDFSLNWSKSVKKLTEIYGGQKKFGDLKVGDRADAFYGSQWQKSADGELILDENGMPTKDAYKQYLGHLDPNFRMGMQNTFRYKDFTLSVDLDGAYKGVIYSVLSEKLWWGGKHPESVEYRDAQYAVGHPIYVPNGVVVTGGELKRDIDGNVISDTRTYKRNTTAVDWQQWCQNYPYQAYVSSKENAKFANVFDRSYIKLRRVALTYNFTKLLSKQSPVKGLTATVFGNNLAVWKKVPFVDPDYTGDSNDGGANDPTARYIGMGVNIKF | not soluble
NKDNPYIKPDDPRPVVLFCSTFSPSLTCAPEVFEQIKALSQKSQWRWLVQFHPKMKPSIVEQYKTLENENLQFVETDNVIPLLQAGDVMLCDTSSILLMFLMQRKPVVTFKNQSPKAHLIDINRVEEIEPAITRALSRTDDLMAHIHDYCNQIHPTGDGQSSQRVLAATDA | not soluble
NLHGMEQIEFQVSAHRDLPLRPLNKVASGGELSRISLAIQVITSKAGTVPTLIFDEVDTGIGGRIAAIVGKLLQQLGKTRQVMSITHLPQVAARGDHHWRVSKTSETED | not soluble
NLLIQELCQAVINHFVRYLNINLGALYVSNEVESSLHLLSGYALSKAKKEMPAIRFGDGIVGQVAQERRLLVLENIPGENFVLESGLGDIQPSHILIAPILYQERMLGVIELGSLEPFTENHKEYMSHVMDSIAIAITSAHAREKVRELLEETQR | not soluble
NLYFQGHMDNVDELRKIENKSSFVSADNMPEYVKGAFISMQDERFYNHHGFDLKGTTRALFSTISDRDVQGGSTITQQVVKNYFYDNDRSFTRKVKELFVAHRVEKQYNKNEILSFYLNNIYFGDNQYTLEGAANHYFGTTVNKNSTTMSHITVLQSAILASKVNAPSVYNINNMSENFTQRVSTNLEKMKQQNYINETQYQQAMSQLN | soluble
NPHMWWLQDADPENNSRQASPSQESINQLVYMGFDTVVAEAALRVFGGNVQLAAQTLAHHGGSLPPDLQF | soluble
NSSFTPSTVPNINFSGLNGGITNTATNALRPSDIFGANA | soluble
NSYVFDLPHNQHKLTKFAHKGILFNSVHLERDGTLKFPQLKQSKQKPAVSSELKTAIKRIKAGYKKVKPNYKKRQKQQIAELFAKRKQRRSWKNF | not soluble
NTTHAYVHASPPHSVPIAGASTAAVTHQQATQLKGTDELYGLGNLPSSGPGRWEYLANPENWHPERRKLHEKLLDEARSSALTLAESLERDGCQPTLFALRGNTATGKTRIATKKIPALAAALEKTGGKGCINPDVFKSSLAKSEAGAKIFSSAQVHNESCFLADHFEDGLRSQRTGSGAIASIVVDKRLARAYEIDSYIELAKETGRKVELCDIDAPLENSLTGVLQRKPEGEDPRPPYPVVSSGFVAVRSNRMSVIDRFIADPSLGNYRLFGTAEDGKKVMVASVMGGELSVEDADLYEKITSPQSSVTGDLADKIIDNELIDRLTNNIDDPERAANTRAALEKYNGKSWSAALAAHSELI | not soluble
NVVLKDASELLDEVVVIGYGAVKKSDLTSSISTVKGKEITETVTGNAMDALQGKINGVQVTSGGGPGAQPKVLIRGVTTVNGTDPLYVVDGMPVGTNINFLNSNDIESMEVLKDASAAAIYGTRASNGVILITTKKGMAGK | not soluble
PAKRAFSNADQFVETMLPLAKEAAARIGVDPVMLVAQAALETGWGKSIMRQQDGSSSHNLFGIKAAGSWKGAEARAITSEFRDGKMVKETADFRSYDSYADSFHDLVSLLQNNNRYKDVVNSADKPEQFVKELQKAGYATDPAYASKISQIAKQMKS | not soluble
PATDASVLLVQLSDSHLFAEDGARLLGMDTAHSLEKVVERVAREQPRIDLILATGDVSQDGSLDSYTRFRRLSAPLDAPLRWFAGNHDEREPMQRATEGSDLLEQVVDVGNWRVVLLDSSIPGAVPGYLEEDQLELLRRAIDSAGERFLLVSFHHHPVPIGSDWMDPIGLRNPQALFDLLAPYPQVRCLLWGHIHQEFDRQRGPLRLLASPSTCVQFAPGSSDFTLDRLAPGYRWLRLHDDGRLETGISRVDDVVF | not soluble
PDVSVQEMVSAYTTFVNKGIRVNPLPITRIEDQYGNVVAQFSPNMVEVLPPDAAYKMLYMLKSVVDGGTGSRLRYRYGFKLDMGGKTGTTQNNSD | not soluble
PEHIRQMAQAVEGVTPRALPDLPVACRLSGLEPLTIEKETLFINVGERTNVTGSARFKRLIKEEQYDEALEVARQQVENGAQIIDINMDEGMLDAQACMVRFLNLCASEPEISKVPIMVDSSKWEVIEAGLKCIQGKGIVNSISLKEGKEKFVEQAKLIRRYGAAVIVMAFDEVGQAETRTRKLEICTNAYRILVDEVGFPPEDIIFDPNIFAVATGIDEHNNYAVDFIEAVADIKRDLPHAMISGGVSNVSFSFRGNNYVREAIHAVFLYHCFKNGMDMGIVNAGQLEIYDNVPEKLREAVEDVVLNRRDDATERLLDIAAEYADKGVGKEEDASAL | not soluble
